Laboratory results: patent US10555963B2, “Klotho protein and related compounds for the treatment and diagnosis of cancer” (TEL HASHOMER MEDICAL RESEARCH INFRASTRUCTURE AND SERVICES …, priority 2007, dated 2020)

Experiments:
[1] = system: IGF-1 pathway in HEK 293 cells; test: IGF-1 pathway activation (Western blotting) after klotho protein over-expression; assay type: cell-based, human; details: IGF-1 12.5 nM, 15 min
Description: (§1) For breast cells, cells were harvested and lysed for total protein extraction in RIPA buffer (50 mM Tris-Cl pH 7.4, 150 mM NaCl, 1% NP-40, 0.25% Na-deoxycholate, 1 mM EDTA, 1 mM NaF) together with a protease inhibitor cocktail (Sigma). 50 μg protein extracts were loaded on 10% polyacrylamide gels, separated electrophoretically and blotted from the gel onto nitrocellulose membrane (Schleicher & Schuell Bioscience GmbH, Dassel, D E). The membranes were then immunoblotted with the indicated antibodies.
(§2) MDA-MB-231 cells, which express lower levels of these receptors, were also examined. HEK 293 cells, whose growth is not dependent on the IGF-1 pathway (El-Shewy et al., 2007) and is not inhibited by klotho protein, served as control.
(§3) In further experiments, MCF-7, MDA-MB-231 or HEK-293 cells were transfected with either pcDNA3-HA-KL or empty vector and treated with IGF-1 (12.5 nM, 15 min).

[2] = system: IGF-1 pathway in MDA-MB-231 cells; test: as above; assay type: cell-based, human; details: IGF-1 12.5 nM, 15 min, data not shown
Description: as §1, §2, §3

[3] = system: insulin pathway in MCF-7 cells; test: Insulin pathway activation after klotho protein over-expression; assay type: cell-based, human; details: insulin stimulation
[4] = system: EGF pathway in MCF-7, MDA-MB-231 and HEK293 cells; test: EGF pathway (ERK1/2) after klotho protein over-expression; assay type: cell-based, human; details: starved 48 hours
Description: The effects of over-expression of klotho protein on the insulin-stimulated pathway were also examined. The EGF pathway, which plays an important role in the pathogenesis of breast cancer, is not modulated by klotho protein in either L6 or H411E cells (Kurosu et al., 2005). In order to evaluate the effects of klotho protein on this pathway in MCF-7, MDA-MB-231 and HEK293 breast cancer cells, these cells were transfected with either pcDNA3-HA-KL or an empty vector, starved for 48 hours, treated with EGF, and analyzed for the expression and activity of the ERK1/2, which are downstream targets of the EGF pathway.

[5] = system: IGF-1 pathway in Panc1 cells; test: IGF-1 pathway in Panc1 cells after klotho protein over-expression (immunoblot); assay type: cell-based, human; details: IGF-1 12.5 nM, 15 min
Description: For pancreatic cells, protein extraction and Western blotting was performed as described (Wolf et al., 2008).
Panc1 cells were transfected with either klotho protein-HA expression plasmid (KL-HA) or a control vector (pcDNA3). After 24 hrs, cells were serum starved for 48 hr and treated with IGF-1 (12.5 nM, 15 min). Following treatment, cells were harvested and proteins were resolved and immunoblotted using antibodies directed against phosphorylated (p) and total (t) IGF-1R, p- and t-AKT, p- and t-ERK1/2.

[6] = system: Colo357, MiaPaCa2, and Panc1; test: Colony formation assay of pancreatic carcinoma cell lines transfected with klotho protein vector; assay type: cell-based, human; details: pcDNA3-HA-KL vs empty vector; G418 two weeks
Description: Two days following transfection with the indicated plasmids, G418 (900 μg/ml for Panc1, 1000 μg/ml for MiaPaCa2 and 750 μg/ml for Colo357, HEK-293 and BON1) was added to the culture media. At day 14, cells were stained using crystal violet (Sigma-Aldrich) and quantitated as described (Wolf et al., 2008).
For the colony formation assay, pancreatic carcinoma cell lines Colo357, MiaPaCa2, and Panc1 were transfected with either a HA-tagged klotho protein expression vector (pcDNA3-HA-KL) or an empty vector (pcDNA3). Transfected cells were cultured in media containing G418 for two weeks. Colonies were stained with crystal violet and photographed.

[7] = system: human embryonic kidney (HEK) 293 cells; test: Colony formation assay after transfection with klotho protein expression vector; assay type: cell-based; details: transfected pcDNA3-HA-KL vs empty vector
Description: Two days following transfection with the indicated plasmids, G418 (750 μg/ml) was added to the culture media; and at day 14, the cells were stained using gentian violet. Untransfected cells were treated similarly, and all died within the 2 weeks of culture in the selection media. Quantification of the results was performed using AlphaImager 2000 (Alpha Innotech, CA).
The effect of klotho protein on growth of breast cancer cells was first assessed using colony formation assays. MCF-7, MDA-MB-231 and the non-cancerous human embryonic kidney (HEK) 293 cells were transfected with either a HA-tagged klotho protein expression vector (pcDNA3-HI-A-KL) or an empty vector (pcDNA3). Transfected cells were cultured in media containing G418 for two weeks and stained to determine the number of surviving colonies.

[8] = system: insulin pathway in HEK 293 cells; test: Insulin pathway activation after klotho protein over-expression; assay type: cell-based, human; details: insulin stimulation
p53 levels in HEK 293 = test: Immunoblot of p53 and PARP after klotho protein over-expression; assay type: cell-based, human
Description: as §1
(§4) In fibroblasts, klotho protein reduces senescence through down-regulation of p53 (de Oliveira, 2006). The effects of klotho protein on p53 levels in MCF-7 breast cancer cells and HEK 293 were therefore analyzed.

[9] = system: p53 levels in MCF-7 cells; test: as above; assay type: cell-based, human
Description: as §1, §4

MCF-7 cells = test: IGF-1-induced MCF-7 proliferation after klotho protein transfection; assay type: cell-based, human; details: HA-KL-transfected cells, 0.5% serum, IGF-1 24-96 hr; control pcDNA3 cells up to 40%
Description: The medium was aspirated, and the cells were dissolved by dimethyl sulfoxide (DMSO).
Klotho protein is known to inhibit activation of the IGF-1 pathway in L6 myoblasts cells and rat hepatoma H4IIE cells (Kurosu et al., 2005). This pathway plays an important role in breast cancer tumorigenesis, and IGF-1 induces MCF-7 cell proliferation (Geier et al., 1995; Yee, 2006). In order to test the ability of klotho protein to modulate IGF-1-induced proliferation and survival, MCF-7 cells were transiently transfected with either pcDNA3 or pcDNA3-HA-KL, and grown in 0.5% serum with either IGF-1 or a control vehicle for 24-96 hr.

Panc1 cells = test: In vivo Panc1 tumors in athymic nude mice treated with soluble klotho protein; details: 200 ng/day, 500 ng/day daily intra-peritoneal, up to 4 weeks
Description: Panc1 cells were harvested, washed twice with sterile PBS, counted and resuspended in Matrigel (BD Biosciences). Six-week-old female athymic nude mice were injected subcutaneously in both flanks with cells at a density of 0.5×10^6 cells/100 μl. The mice were treated with daily intra-peritoneal injections of either soluble klotho protein (prepared as described above): 200 ng/day, 500 ng/day, or vehicle control (saline). Five mice were used in each group. Tumor size was measured weekly with a linear caliper for up to 4 weeks, and tumor volume was estimated using the equation V=(a×b^2)×0.5236, where “a” is the larger dimension and “b” the perpendicular diameter.

B1: klotho protein: full length mouse Klotho (SEQ ID NO. 3) over-expressed in cells from HA-tagged expression vector pcDNA3-HA-KL (protein)
chain: MLARAPPRRPPRLVLLRLLLLHLLLLALRARCLSAEPGQGAQTWARFARAPAPEAAGLLHDTFPDGFLWAVGSAAYQTEGGWRQHGKGASIWDTFTHHSGAAPSDSPIVVAPSGAPSPPLSSTGDVASDSYNNVYRDTEGLRELGVTHYRFSISWARVLPNGTAGTPNREGLRYYRRLLERLRELGVQPVVTLYHWDLPQRLQDTYGGWANRALADHFRDYAELCFRHFGGQVKYWITIDNPYVVAWHGYATGRLAPGVRGSSRLGYLVAHNLLLAHAKVWHLYNTSFRPTQGGRVSIALSSHWINPRRMTDYNIRECQKSLDFVLGWFAKPIFIDGDYPESMKNNLSSLLPDFTESEKRLIRGTADFFALSFGPTLSFQLLDPNMKFRQLESPNLRQLLSWIDLEYNHPPIFIVENGWFVSGTTKRDDAKYMYYLKKFIMETLKAIRLDGVDVIGYTAWSLMDGFEWHRGYSIRRGLFYVDFLSQDKELLPKSSALFYQKLIEDNGFPPLPENQPLEGTFPCDFAWGVVDNYVQVDTTLSQFTDPNVYLWDVHHSKRLIKVDGVVAKKRKPYCVDFSAIRPQITLLREMRVTHFRFSLDWALILPLGNQTQVNHTVLHFYRCMISELVHANITPVVALWQPAAPHQGLPHALAKHGAWENPHTALAFADYANLCFKELGHWVNLWITMNEPNTRNMTYRAGHHLLRAHALAWHLYDDKFRAAQKGKISIALQADWIEPACPFSQNDKEVAERVLEFDIGWLAEPIFGSGDYPRVMRDWLNQKNNFLLPYFTEDEKKLVRGSFDFLAVSHYTTILVDWEKEDPMKYNDYLEVQEMTDITWLNSPSQVAVVPWGLRKVLNWLRFKYGDLPMYVTANGIDDDPHAEQDSLRIYYIKNYVNEALKAYVLDDINLCGYFAYSLSDRSAPKSGFYRYAANQFEPKPSMKHYRRIIDSNGFLGSGTLGRFCPEEYTVCTECGFFQTRKSLLVFISFLVFTFIISLALIFHYSKKGQRSYK
modifications: HA tag
effect on IGF-1 pathway phosphorylation [1]: only minor effects | effect on IGF-1 pathway phosphorylation [2]: Smaller effects | activation of the insulin pathway [3]: inhibited | expression and phosphorylation of ERK1/2 after EGF [4]: affected neither the expression nor phosphorylation | phosphorylation of IGF-1R, AKT1 and ERK1/2 [5]: reduced phosphorylation | number and size of surviving colonies [6]: significantly reduced | effect on HEK 293 growth (colony assay) [7]: no effect | activation of the insulin pathway [8]: not | expression or cleavage of PARP (p53 levels in HEK 293): No changes | p53 levels (p53 levels in HEK 293): reduce | expression or cleavage of PARP [9]: No changes | p53 levels [9]: increase | increase of cell proliferation by IGF-1 (MCF-7 cells): 25% | tumor growth (tumor size) (Panc1 cells): significant dose-response arrest of tumor growth
